Columns and labels:
LRP6 = biological target: T1, LRP6 (Homo sapiens, UniProt O75581); experiment: 125I-RAP binding to LRP6-transduced HT1080 cells; conditions: 500 nM unlabeled Mesd
T1 construct: expressed in transfected cells; host or cells: human HT1080 cells, retroviral vector pLNCX2
Procedure: (§1) Cells (2×10^5) were seeded into 12-well dishes 1 day prior to assay. Ligand-binding buffer (minimal Eagle's medium containing 0.6% BSA with a different concentration of radioligand, 0.6 ml/well) was added to cell monolayers, in the absence or the presence of 500 nM unlabeled RAP or 500 nM unlabeled Mesd, followed with incubation for 0-4 hours at 4° C. Thereafter, overlying buffer containing unbound ligand was removed, and cell monolayers were washed and lysed in low-SDS lysis buffer (62.5 mM Tris-HCl pH 6.8, 0.2% SDS, 10% v/glycerol) and counted.
Receptor-associated protein (RAP) binds with high affinity to LRP, megalin, VLDLR and apoER2, and with a lower affinity to the LDLR (Bu, G., Int. Rev. Cytol. 209, 79-116. 2001). To determine whether RAP and Mesd bind to identical, overlapping, or different sites on the receptors, we performed binding and competition analysis of these two chaperones with HT1080 cells stably expressing LRP6.
In FIG. 8A, binding of ^125I-RAP (5 nM) to LRP6-transduced HT1080 cells and the control cells was carried out for 4 hours at 4° C. in the absence (total) or presence of 500 nM RAP, or 500 nM Mesd. In FIG. 8B, binding of^125I-Mesd (5 nM) to LRP6-transduced HT1080 cells was carried out for 2 hours at 4° C. in the absence (total) or presence of various concentrations of RAP or 500 nM Mesd. […]

Wnt signaling = Wnt signaling in MMTV-Wnt1 tumors (GST-E-cadherin pull-down, c-Myc expression); assay type: in vivo, mice; conditions: GST-E-cadherin pull-down and c-Myc expression
Procedure: The GST-E-cadherin pulldown assay was performed as previously described (2). Cells expressing control or LRP6 shRNA were treated with L cells or Wnt3a-conditioned media (CM) for 4 h. Free β-catenin was determined using a GST-E-cadherin pull-down assay. Cells were lysed for 30 minutes at 4° C. Protein concentrations in lysates were quantified, and equal quantities of total proteins from different samples were incubated with GST-E-cadherin Sepharose beads for 4 h at 4° C. After incubation, the beads were washed three times and the bound proteins were eluted and separated via SDS-PAGE. Western blotting was performed using antibody to β-catenin.
In these experiments, mice bearing established MMTV-Wnt1 tumor transplants were divided into three groups (five animals per group) and were i.p. injected with PBS (vehicle), Mesd, or Mesd peptide every other day. Tumor volume was analyzed using caliper measurement. Data represent at least three independent experiments and each time point represents the mean tumor volume±SEM. *p<0.05; **p<0.01. […] Scale bar=50 μm.

LRP5 = LRP5 (Homo sapiens, UniProt O75197); experiment: 125I-Mesd binding to HEK293 cells transiently transfected with LRP5; parameters: Plasmid pcDNA3.1C-Myc-hLRP5 containing the full-length human LRP5 cDNA; expressed in transfected cells; host or cells: HEK293 cells, transient transfection; conditions: 125I-Mesd 5 nM, 4 hours at 4° C.
Procedure: as §1
To determine whether Mesd binds to other members of the LDLR family, ^125I-Mesd binding analysis was performed with four groups of cells expressing different members of the LDLR family (FIG. 2). In the first experiment, HEK293 cells were transiently transfected with cDNAs for the LDLR, LRP5, LRP6 or empty pcDNA3 vector. […]

LRP5, sequence (O75197 32-1615): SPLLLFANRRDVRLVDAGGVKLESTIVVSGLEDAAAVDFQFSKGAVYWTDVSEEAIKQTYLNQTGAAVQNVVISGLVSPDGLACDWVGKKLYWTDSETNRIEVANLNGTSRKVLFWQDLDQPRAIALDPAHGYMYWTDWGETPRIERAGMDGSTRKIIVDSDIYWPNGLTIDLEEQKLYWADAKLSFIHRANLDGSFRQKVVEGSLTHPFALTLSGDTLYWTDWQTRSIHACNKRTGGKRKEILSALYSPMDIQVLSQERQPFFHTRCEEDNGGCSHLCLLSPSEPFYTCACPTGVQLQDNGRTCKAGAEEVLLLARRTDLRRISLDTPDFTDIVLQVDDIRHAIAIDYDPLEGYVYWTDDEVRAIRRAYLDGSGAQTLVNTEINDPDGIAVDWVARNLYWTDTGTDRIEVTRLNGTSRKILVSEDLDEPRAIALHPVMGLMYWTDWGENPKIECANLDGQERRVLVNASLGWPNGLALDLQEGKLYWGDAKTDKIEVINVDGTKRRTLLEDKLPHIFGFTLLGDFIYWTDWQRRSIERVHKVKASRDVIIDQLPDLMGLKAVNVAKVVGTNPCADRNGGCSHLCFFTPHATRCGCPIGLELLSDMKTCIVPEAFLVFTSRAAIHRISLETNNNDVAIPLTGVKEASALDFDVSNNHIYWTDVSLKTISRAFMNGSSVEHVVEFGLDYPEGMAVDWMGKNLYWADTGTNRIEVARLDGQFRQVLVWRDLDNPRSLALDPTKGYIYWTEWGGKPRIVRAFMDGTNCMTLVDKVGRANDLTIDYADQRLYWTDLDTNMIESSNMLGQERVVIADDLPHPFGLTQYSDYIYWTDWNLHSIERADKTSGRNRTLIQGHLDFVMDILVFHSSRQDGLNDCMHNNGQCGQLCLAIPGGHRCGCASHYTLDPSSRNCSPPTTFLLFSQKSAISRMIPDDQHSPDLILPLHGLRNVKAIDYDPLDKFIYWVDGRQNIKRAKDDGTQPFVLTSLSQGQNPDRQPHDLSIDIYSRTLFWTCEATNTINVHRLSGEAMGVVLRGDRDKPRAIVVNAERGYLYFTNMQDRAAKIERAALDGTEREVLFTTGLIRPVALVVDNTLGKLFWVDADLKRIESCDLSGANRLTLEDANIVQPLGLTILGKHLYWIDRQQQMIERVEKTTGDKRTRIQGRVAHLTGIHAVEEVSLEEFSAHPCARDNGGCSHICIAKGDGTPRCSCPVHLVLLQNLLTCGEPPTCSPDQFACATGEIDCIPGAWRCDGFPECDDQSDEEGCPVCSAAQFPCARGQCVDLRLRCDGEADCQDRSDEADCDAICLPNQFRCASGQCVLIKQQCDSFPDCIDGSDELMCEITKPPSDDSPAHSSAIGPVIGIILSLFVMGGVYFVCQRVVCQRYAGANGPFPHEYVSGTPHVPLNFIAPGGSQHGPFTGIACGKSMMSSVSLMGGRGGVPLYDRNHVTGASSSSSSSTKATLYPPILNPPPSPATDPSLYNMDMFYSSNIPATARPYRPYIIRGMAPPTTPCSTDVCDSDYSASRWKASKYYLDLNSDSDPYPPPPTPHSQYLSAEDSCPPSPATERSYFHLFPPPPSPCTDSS
T1 sequence (O75581 20-1613): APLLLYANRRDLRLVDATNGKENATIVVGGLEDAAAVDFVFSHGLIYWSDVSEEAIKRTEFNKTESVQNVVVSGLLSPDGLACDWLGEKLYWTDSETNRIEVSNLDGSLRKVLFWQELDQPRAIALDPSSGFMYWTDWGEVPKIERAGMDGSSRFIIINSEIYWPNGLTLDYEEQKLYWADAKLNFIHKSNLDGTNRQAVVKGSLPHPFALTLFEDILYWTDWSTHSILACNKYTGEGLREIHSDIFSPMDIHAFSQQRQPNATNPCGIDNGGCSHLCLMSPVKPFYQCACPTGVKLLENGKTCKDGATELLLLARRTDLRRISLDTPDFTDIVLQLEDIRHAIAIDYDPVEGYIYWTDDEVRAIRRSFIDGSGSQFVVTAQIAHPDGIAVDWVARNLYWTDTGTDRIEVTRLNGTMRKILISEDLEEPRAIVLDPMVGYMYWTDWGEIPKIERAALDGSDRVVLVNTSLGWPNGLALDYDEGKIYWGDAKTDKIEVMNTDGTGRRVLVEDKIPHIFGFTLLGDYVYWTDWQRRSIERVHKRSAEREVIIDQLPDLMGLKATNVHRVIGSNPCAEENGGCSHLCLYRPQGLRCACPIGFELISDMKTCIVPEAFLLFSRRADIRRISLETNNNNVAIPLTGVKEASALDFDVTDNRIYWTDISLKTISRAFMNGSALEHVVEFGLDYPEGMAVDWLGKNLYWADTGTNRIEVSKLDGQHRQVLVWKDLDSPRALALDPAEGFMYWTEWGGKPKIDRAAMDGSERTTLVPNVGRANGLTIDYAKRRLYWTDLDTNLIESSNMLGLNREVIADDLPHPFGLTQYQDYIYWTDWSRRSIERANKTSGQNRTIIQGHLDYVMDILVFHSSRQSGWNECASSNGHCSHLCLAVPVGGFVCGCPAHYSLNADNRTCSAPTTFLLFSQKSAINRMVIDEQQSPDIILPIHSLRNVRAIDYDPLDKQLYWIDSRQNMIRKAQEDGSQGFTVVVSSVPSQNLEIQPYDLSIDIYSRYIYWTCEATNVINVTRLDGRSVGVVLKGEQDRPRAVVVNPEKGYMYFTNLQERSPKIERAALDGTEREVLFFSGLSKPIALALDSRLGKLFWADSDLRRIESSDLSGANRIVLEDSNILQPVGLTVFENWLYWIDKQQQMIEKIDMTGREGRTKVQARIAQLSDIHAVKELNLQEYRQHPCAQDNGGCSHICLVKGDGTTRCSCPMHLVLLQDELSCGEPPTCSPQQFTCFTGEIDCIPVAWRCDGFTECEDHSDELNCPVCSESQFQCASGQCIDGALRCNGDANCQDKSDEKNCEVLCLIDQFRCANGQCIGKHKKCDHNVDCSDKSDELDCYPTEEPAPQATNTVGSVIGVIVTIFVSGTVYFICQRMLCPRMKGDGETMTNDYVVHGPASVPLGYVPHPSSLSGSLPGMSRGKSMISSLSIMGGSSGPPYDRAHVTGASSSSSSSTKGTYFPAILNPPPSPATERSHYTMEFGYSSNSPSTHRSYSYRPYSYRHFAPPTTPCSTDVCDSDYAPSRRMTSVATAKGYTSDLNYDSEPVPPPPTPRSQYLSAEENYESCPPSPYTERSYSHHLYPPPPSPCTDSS

B1: Mesd: Recombinant full-length mouse Mesd expressed in E. coli, N-terminal polyhistidine tail, lacking the signal peptide (protein)
chain: ADTPGEATPPPRKKKDIRDYNDADMARLLEQWEKDDDIEEGDLPEHKRPSAPIDFSKLDPGKPESILKMTKKGKTLMMFVTVSGNPTEKETEEITSLWQGSLFNANYDVQRFIVGSDRAIFMLRDGSYAWEIKDFLVSQDRCAEVTLEGQMYPGKGGGSKEKNKTKPEKAKKKEGDRKPRASKEDNRAGSRREDL
modifications: left off: small tags and cut ends
notes: Recombinant full-length mouse Mesd expressed in E. coli, N-terminal polyhistidine tail, lacking the signal peptide
- Effect of excess unlabeled Mesd on the LRP6-dependent increase of 125I-RAP binding (LRP6): abolished
- Wnt signaling in tumors compared to control treatment (Wnt signaling): decreased Wnt signaling
- Mesd binding to LRP5 (LRP5): specifically binds to Mesd, albeit at lower levels compared to LRP6
